Assay results: patent US20080292662A1

Biological target: Rhodanese (Sigma), denatured in 8 M urea (UniProt P00586)
Assay: cell-based or functional assay

Chain of UniProt P00586 (P00586 2-297 limits assumed): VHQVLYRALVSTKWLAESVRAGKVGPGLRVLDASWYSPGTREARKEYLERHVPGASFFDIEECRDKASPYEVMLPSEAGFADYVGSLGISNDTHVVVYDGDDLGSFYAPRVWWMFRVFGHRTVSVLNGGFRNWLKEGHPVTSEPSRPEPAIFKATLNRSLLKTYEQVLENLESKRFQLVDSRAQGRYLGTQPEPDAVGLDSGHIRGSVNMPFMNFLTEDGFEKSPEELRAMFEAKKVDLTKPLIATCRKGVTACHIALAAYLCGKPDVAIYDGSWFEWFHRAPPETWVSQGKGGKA

Histidine-tagged ClpL of Streptococcus pneumoniae (from pKHY004, expressed in E. coli)
Rhodanese activity (%) after refolding with ClpL 90 Nm: 9%
